These are literature values, as cited in paper PMC8151241.

Data set [1] has as its target PRK (Chlamydomonas reinhardtii) (UniProt P19824).
For data set [2], the target named is GAPDH (Chlamydomonas reinhardtii) (UniProt P50362).
For data set [3], the target named is CP12-GAPDH complex (Chlamydomonas reinhardtii) (UniProt A6Q0K5).

Sequence of UniProt P50362 (P50362 35-374): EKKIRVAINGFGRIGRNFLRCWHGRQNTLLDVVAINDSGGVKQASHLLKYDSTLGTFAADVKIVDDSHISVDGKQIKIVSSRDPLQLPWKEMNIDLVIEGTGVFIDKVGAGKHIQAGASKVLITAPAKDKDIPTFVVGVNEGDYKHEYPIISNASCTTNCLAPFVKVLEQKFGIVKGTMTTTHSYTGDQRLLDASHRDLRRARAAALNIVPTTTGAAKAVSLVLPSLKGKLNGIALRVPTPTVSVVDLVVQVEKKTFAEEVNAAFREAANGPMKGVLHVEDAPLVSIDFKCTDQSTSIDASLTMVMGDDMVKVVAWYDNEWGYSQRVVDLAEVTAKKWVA

Turning to CP12 (from UniProt A6Q0K5), the Kd (commonly a measure of binding affinity in units of concentration) is 1.3 µM in data set [1] and 0.0004 µM in data set [2].

Take PRK (from UniProt P19824): in data set [3], the equilibrium dissociation constant (Kd) is 0.06 µM.
